Test results published in patent US20210130436A1 (published 2021).

Columns and labels:
[1] = molecular target: T1, human PD-L1, expressed on CHO cells (human, UniProt Q9NZQ7 19-290); assay: flow cytometry on CHO cells stably expressing human PD-L1; PE anti-human Fc
T1 construct: Full-length surface expression construct transduced by lentivirus into CHO cells; also called huPD-L1; CD274

[2] = molecular target: T2, human PD-L1 (CD274), full-length, expressed on the surface of CHO cells (human, UniProt Q9NZQ7 19-290); assay: flow cytometry on PD-L1 CHO cells; MFI against WT CD80 ECD-Fc (R&D)
T2 construct: also called huPD-L1; B7-H1
T2 sequence (Q9NZQ7 19-290): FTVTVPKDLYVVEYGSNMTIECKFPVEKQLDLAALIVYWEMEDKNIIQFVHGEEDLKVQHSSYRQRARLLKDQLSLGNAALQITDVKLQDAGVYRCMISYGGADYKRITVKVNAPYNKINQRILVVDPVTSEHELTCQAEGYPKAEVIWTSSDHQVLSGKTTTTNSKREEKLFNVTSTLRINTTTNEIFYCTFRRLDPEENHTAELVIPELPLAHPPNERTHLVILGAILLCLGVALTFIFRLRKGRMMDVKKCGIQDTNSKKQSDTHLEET

[3] = molecular target: T3, human CD28, endogenously expressed on Jurkat/IL2 reporter cells (human, UniProt P10747 19-220); assay: flow cytometry, Jurkat/IL2 reporter cells (endogenous CD28), 33.3 nM Fc fusion, PE anti-human Fc
T3 construct: This is the endogenous CD28 of Jurkat cells

[4] = molecular target: T3, human CD28, endogenously expressed on …; assay: flow cytometry on Jurkat cells (CD28); MFI against WT CD80 ECD-Fc (R&D)
[5] = molecular target: T4, human CTLA-4 (CTLA4), full-length, expressed on the surface of CHO cells (human, UniProt P16410 36-223); assay: flow cytometry, CHO cells stably expressing human CTLA-4, 33.3 nM Fc fusion, PE anti-human Fc
T4 construct: also called huCTLA4
T4 sequence (P16410 36-223): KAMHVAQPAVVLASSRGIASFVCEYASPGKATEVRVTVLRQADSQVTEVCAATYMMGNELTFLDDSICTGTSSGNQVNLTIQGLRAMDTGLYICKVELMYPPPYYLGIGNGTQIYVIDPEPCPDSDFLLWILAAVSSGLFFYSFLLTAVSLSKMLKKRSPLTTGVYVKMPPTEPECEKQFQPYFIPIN

[6] = molecular target: T2, human PD-L1 (CD274), full-length, …; assay: flow cytometry; MFI on PD-L1 CHO cells over MFI on Jurkat cells (CD28)
[7] = molecular target: T2, human PD-L1 (CD274), full-length, …; assay: flow cytometry, CHO cells stably expressing human PD-L1, 33.3 nM Fc fusion, PE anti-human Fc
[8] = molecular target: T4, human CTLA-4 (CTLA4), full-length, …; assay: flow cytometry on CTLA-4 CHO cells; MFI against WT CD80 ECD-Fc (R&D)
[9] = molecular target: T5, CD28, endogenously expressed on Jurkat/IL2 reporter cells (human, UniProt P10747 19-220); assay: flow cytometry, Jurkat/IL2 reporter cells (endogenous CD28)
T5 construct: whole, on cells

[10] = molecular target: T6, human PD-L1 (huPD-L1), full-length, stably expressed on CHO cells (human, UniProt Q9NZQ7 19-290); assay: flow cytometry, CHO cells expressing huPD-L1
T6 construct: whole, on cells
T6 sequence (Q9NZQ7 19-290): as the sequence (Q9NZQ7 19-290) above

[11] = molecular target: T7, CD96 (UniProt P40200 22-585, limits assumed); assay: flow cytometry on cells expressing CD96, Fc fusion at 100 nM
T7 construct: whole, on cells
T7 sequence (looked up): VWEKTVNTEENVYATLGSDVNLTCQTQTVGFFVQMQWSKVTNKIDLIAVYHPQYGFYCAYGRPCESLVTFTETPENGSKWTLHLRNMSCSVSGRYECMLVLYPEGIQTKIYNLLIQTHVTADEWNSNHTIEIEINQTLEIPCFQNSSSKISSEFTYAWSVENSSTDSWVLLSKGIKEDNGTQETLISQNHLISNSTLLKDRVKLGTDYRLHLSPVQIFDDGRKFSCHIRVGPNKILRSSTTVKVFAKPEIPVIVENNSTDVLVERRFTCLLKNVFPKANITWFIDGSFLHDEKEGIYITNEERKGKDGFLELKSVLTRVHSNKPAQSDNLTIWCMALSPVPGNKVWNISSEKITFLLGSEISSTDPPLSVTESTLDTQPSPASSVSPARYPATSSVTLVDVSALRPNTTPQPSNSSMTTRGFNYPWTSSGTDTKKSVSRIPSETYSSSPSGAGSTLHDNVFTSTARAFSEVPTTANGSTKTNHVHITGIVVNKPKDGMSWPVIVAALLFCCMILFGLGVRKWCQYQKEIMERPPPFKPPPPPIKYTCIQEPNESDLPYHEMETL

[12] = molecular target: T8, CD226 (UniProt Q15762 19-336); assay: flow cytometry on cells expressing CD226, Fc fusion at 100 nM
T8 construct: whole, on cells
T8 sequence (looked up): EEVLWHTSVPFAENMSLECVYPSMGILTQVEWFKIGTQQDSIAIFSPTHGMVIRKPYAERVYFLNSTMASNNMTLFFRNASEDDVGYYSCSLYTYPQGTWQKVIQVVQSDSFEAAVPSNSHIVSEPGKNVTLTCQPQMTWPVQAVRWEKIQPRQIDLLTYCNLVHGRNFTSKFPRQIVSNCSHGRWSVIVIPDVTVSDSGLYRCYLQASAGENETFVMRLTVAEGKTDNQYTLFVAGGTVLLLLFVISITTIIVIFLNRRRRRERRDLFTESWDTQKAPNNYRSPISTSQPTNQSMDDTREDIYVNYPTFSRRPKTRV

T1 sequence (Q9NZQ7 19-290): as the sequence (Q9NZQ7 19-290) above

B1: variant CD80 IgV-Fc E35D/M38T/D46E/M47V/N48S (Fc fusion, not shown: small tags and cut ends; a dimerising Fc or GST)
chain: VIHVTKEVKEVATLSCGHNVSVEELAQTRIYWQKDKKTVLTMMSGEVSIWPEYKNRTIFDITNNLSIVILALRPSDEGTYECVVLKYEKDAFKREHLAEVTLSVKAD
notes: Fc fusion of the variant IgV
Q: Which “MFI at 33.3 nM” value [1] does the source give for B1 here?
A: 19400 MFI

B2: variant CD80 IgV-Fc Q33L/E35D/M47L/V68M/L85Q/E88D (Fc fusion, not shown: a dimerising Fc or GST)
chain: VIHVTKEVKEVATLSCGHNVSVEELAQTRIYWLKDKKMVLTMMSGDLNIWPEYKNRTIFDITNNLSIMILALRPSDEGTYECVVQKYDKDAFKREHLAEVTLSVKAD
Q: What does the source list for B2?
A: Fold change to WT [2]: 15.8 fold; MFI at 33.3 nM [3]: 264 MFI; Fold change to WT [4]: 0.03 fold; MFI at 33.3 nM [5]: 3530 MFI; Ratio of PDL1:CD28 [6]: 476 ratio; MFI at 33.3 nM [7]: 126000 MFI; Fold change to WT CD80 [8]: 0.02 fold

B3: variant CD80 IgV-Fc V22A/E35D/V68E/A71D (Fc fusion, not shown: a dimerising Fc or GST)
chain: VIHVTKEVKEVATLSCGHNVSAEELAQTRIYWQKDKKMVLTMMSGDMNIWPEYKNRTIFDITNNLSIEILDLRPSDEGTYECVVLKYEKDAFKREHLAEVTLSVKAD
notes: The molecule is an Fc fusion, which the general text describes as a dimer
Q: With B3 as the binder, how does the “Fold change to WT” value [2] read?
A: 0.17 fold

Q: And the “MFI at 33.3 nM” value [3]?
A: 14000 MFI

Q: And the “Fold change to WT” value [4]?
A: 1.83 fold

Q: What about the “MFI at 33.3 nM” value [5] of the same binder?
A: 437000 MFI

Q: And the “Ratio of PDL1:CD28” value [6]?
A: 0 ratio

Q: And the “MFI at 33.3 nM” value [7]?
A: 1350 MFI

Q: And the “Fold change to WT CD80” value [8]?
A: 2.45 fold

B4: variant CD80 IgV-Fc E35D/D46E/M47L/V68M/T79M/L85M (Fc fusion, not shown: small tags and cut ends; a dimerising Fc or GST)
chain: VIHVTKEVKEVATLSCGHNVSVEELAQTRIYWQKDKKMVLTMMSGELNIWPEYKNRTIFDITNNLSIMILALRPSDEGMYECVVMKYEKDAFKREHLAEVTLSVKAD
Q: B4 was tested. Which “MFI at 33.3 nM” value [9] did it give?
A: 403 MFI

Q: What about the “MFI at 33.3 nM” value [10] of the same binder?
A: 8640 MFI

B5: CD155 S52L/L104E variant IgV-Fc fusion (Fc fusion, not shown: a dimerising Fc or GST)
chain: WPPPGTGDVVVQAPTQVPGFLGDSVTLPCYLQVPNMEVTHVSQLTWARHGELGSMAVFHQTQGPSYSESKRLEFVAARLGAELRNASLRMFGLRVEDEGNYTCEFVTFPQGSRSVDIWLRVL
Q: Which results are given for B5?
A: MFI at 100 nM [11]: 1830 MFI; MFI at 100 nM [12]: 2210 MFI

B6: CD155 T45Q/S52R/G111R variant IgV-Fc fusion (Fc fusion, not shown: a dimerising Fc or GST)
chain: WPPPGTGDVVVQAPTQVPGFLGDSVTLPCYLQVPNMEVTHVSQLQWARHGERGSMAVFHQTQGPSYSESKRLEFVAARLGAELRNASLRMFGLRVEDEGNYTCLFVTFPQRSRSVDIWLRVL
Q: For B6, which “MFI at 100 nM” value [11] is on record?
A: 2340 MFI

Q: What about the “MFI at 100 nM” value [12] of the same binder?
A: 2080 MFI

B7: CD155 T45Q/S52Q variant IgV-Fc fusion (Fc fusion, not shown: a dimerising Fc or GST)
chain: WPPPGTGDVVVQAPTQVPGFLGDSVTLPCYLQVPNMEVTHVSQLQWARHGEQGSMAVFHQTQGPSYSESKRLEFVAARLGAELRNASLRMFGLRVEDEGNYTCLFVTFPQGSRSVDIWLRVL
Q: What does the source list for B7?
A: MFI at 100 nM [11]: 2450 MFI; MFI at 100 nM [12]: 5790 MFI
